Among the data in publication PMC9507130 are percent recovery of Vin1 in the co-IP values, retold here.

The assay has as its target Vrl1-Envy (S. cerevisiae). In words: co-IP; yeast spheroplast lysates (0.1% Tween-20, 50 mM HEPES, 1 mM EDTA, 50 mM NaCl, pH 7.4); rabbit anti-GFP or anti-HA, Protein A Sepharose, 4 °C; western blot; Vrl1 over-expressed in some panels; vin1Δ strain for Vps5-3HA with Vrl1-Envy.

B1: Vin1-3HA (natural protein)
chain: MENDKASHASPSIGVNEFVVQGEISIDDSERSVKSVSVSISDDEDSKTDVQDNMATPSTRSKFQTDLAIDNRLLEKDPKYKKLFTEKRRRRRPESCINLMTKGKGTGQKDNINDQIFSLRILPGSDLNSLKDSLWIIKISTQPDVEKTIARAFSDFYWLYHQLQNNHWGKTIPPPTRSNILVEKDEFAINHLFMIRNNEKYDPIFNFKPEYIISLQLMAMIKHIFNDKVLRLDSNFIDFISWDDDLPESLQIVVDDSTFTGDKILMTSSQFRELKEFHKQSKKVESITNSHASLIPVTELTEIYISPTKLFSRKDYQRLFQPQSTDNTFNNNDPLIQEWIPKSKTLFTSLSFGSSAPTYQEASTEIQACHDWVSISKEQWKQLLYHVLQYIVDEAVKVNSVINEFTECLKQISLDEVIRANSELFLKFSKLNESFLKKFKGASRQDILKLIILFDENVRFCESFESILNQRLKLGKILSIIEVDLDKKKNFLDKLSPGNNNSNNEDLKIRTAEDEYRIVLKRYNRVKQSWEKIMEDILNERKEFEKREAAEVNSCLKSIRDLNMDEKKHYLQLWQDFVPDEHISQ
Take B1: the percent recovery of Vin1 in the co-IP is 64%.
